Results from PMC8976717 (The Plant journal : for cell and molecular biology, 2021).

Target: the molecule itself
Test: non-reducing SDS-PAGE

B1: GAUT1Δ167 (Arabidopsis GALACTURONOSYLTRANSFERASE 1, truncated at the in vivo cleavage site between residues 167 and 168) (enzyme, Arabidopsis thaliana, UniProt Q9LE59 168-673, looked up)
chain: RANELVQHNDDTILKLENAAIERSKSVDSAVLGKYSIWRRENENDNSDSNIRLMRDQVIMARVYSGIAKLKNKNDLLQELQARLKDSQRVLGEATSDADLPRSAHEKLRAMGQVLAKAKMQLYDCKLVTGKLRAMLQTADEQVRSLKKQSTFLAQLAAKTIPNPIHCLSMRLTIDYYLLSPEKRKFPRSENLENPNLYHYALFSDNVLAASVVVNSTIMNAKDPSKHVFHLVTDKLNFGAMNMWFLLNPPGKATIHVENVDEFKWLNSSYCPVLRQLESAAMREYYFKADHPTSGSSNLKYRNPKYLSMLNHLRFYLPEVYPKLNKILFLDDDIIVQKDLTPLWEVNLNGKVNGAVETCGESFHRFDKYLNFSNPHIARNFNPNACGWAYGMNMFDLKEWKKRDITGIYHKWQNMNENRTLWKLGTLPPGLITFYGLTHPLNKAWHVLGLGYNPSIDKKDIENAAVVHYNGNMKPWLELAMSKYRPYWTKYIKFDHPYLRRCNLHE
- binding result: binds
